Data published in paper PMC6018426, “Crystal structure of the catalytic domain of HIV-1 restriction factor APOBEC3G in complex with ssDNA”.

Legend:
[1] = biological target: CTD2* (A3G-CTD2 E259A), His-tagged (Homo sapiens, UniProt Q9HC16 191-384, P200A;L234K;N236A;C243A;P247K;E259A;F310K;Q318K;C321A;Q322A;C356A); assay: MST; Zn2+ (20 uM ZnCl2); 20 mM Bis-Tris pH 6.5, 100 mM NaCl, 1 mM DTT, 0.002% Tween 20; ZnCl2 20 uM (MST) or 10 uM (EMSA); MST incubated at 4 C, measured at room temperature; EMSA incubated 1 h at room temperature, gel at 4 C; conditions: protein: recombinant; tags: poly-His (pET-28a), RED-tris-NTA dye
[2] = biological target: CTD2* (A3G-CTD2 E259A), GST-purified (Homo sapiens, UniProt Q9HC16 191-384, P200A;L234K;N236A;C243A;P247K;E259A;F310K;Q318K;C321A;Q322A;C356A); assay: competition; EMSA; unlabeled competitor 25-2500 nM against N2; band not affected; 20 mM Bis-Tris pH 6.5, 100 mM NaCl, 1 mM DTT, 0.002% Tween 20; ZnCl2 20 uM (MST) or 10 uM (EMSA); MST incubated at 4 C, measured at room temperature; EMSA incubated 1 h at room temperature, gel at 4 C; conditions: protein: recombinant; tags: GST removed by PreScission protease (pGEX6P-1)
CTD2* (A3G-CTD2 E259A), GST-purified, sequence (Q9HC16 191-384 P200A/L234K/N236A/C243A/P247K/E259A/F310K/Q318K/C321A/Q322A/C356A): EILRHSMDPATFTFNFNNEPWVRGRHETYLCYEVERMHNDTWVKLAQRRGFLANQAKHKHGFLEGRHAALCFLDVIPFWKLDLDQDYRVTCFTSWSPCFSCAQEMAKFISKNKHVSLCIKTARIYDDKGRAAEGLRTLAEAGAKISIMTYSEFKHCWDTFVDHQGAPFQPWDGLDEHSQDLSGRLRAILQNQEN

CTD2* (A3G-CTD2 E259A), His-tagged, sequence (Q9HC16 191-384 P200A/L234K/N236A/C243A/P247K/E259A/F310K/Q318K/C321A/Q322A/C356A): as above

| Binder | Kd [1] [µM] | binding result [2] |
| --- | --- | --- |
| AAUCCCAAA (ssRNA) [9nt RNA] | 1500 ± 500 |  |
| AATCCCAAA (ssDNA) [9nt substrate ssDNA] | 55 ± 12 |  |
| AAAAAAAAA (ssDNA) [9nt polyA] |  | no binding |
